Data on two molecules can be found in patent publication US6995018 (US Dept. of Health and Human Services, dated 2006).

For test [1], the target named is T1, human complement Factor H (human, UniProt P08603 19-1231).
T1 construct: In some experiments Factor H is the endogenous protein of normal human serum; also called fH; purified human Factor H (Quidel)
In words: steady state fluorescence, titration of purified human Factor H with rDMP1. An excerpt:
(§1) Steady state fluorescence studies were accomplished by titrating purified human complement Factor H with rBSP, rOPN, and rDMP1 followed by excitation at 295 nm and monitoring emission between 300 and 450 nm. The emission profile of Factor H alone yields a peak at 347 nm. The addition of rBSP, rOPN, or rDMP1 in nm increments causes a relative fluorescent intensity quenching. Conversion of the fluorescent intensity titration into a binding curve by determining the fraction of binding sites occupied as the fractional change in fluorescence quenching at 347 nm yields a saturable binding curve. […] Given that normal serum concentration of Factor H is ~0.5 mg/mL it is probable that virtually all BSP, OPN, and DMP1 in serum will be complexed with Factor H.

The target in test [2] is T1, human complement Factor H. In words: steady state tryptophan fluorescence quenching, titration of Factor H with BSP.
Description: as §1

In test [3] the target is T2, αVβ3 integrin on murine erythroleukemia (MEL) cells (murine (MEL cells), UniProt P43406 31-1044; O54890 26-787).
T2 construct: whole, on cells; also called integrins; cell surface integrins
T2 sequence (P43406 31-1044, chain 1 of 2): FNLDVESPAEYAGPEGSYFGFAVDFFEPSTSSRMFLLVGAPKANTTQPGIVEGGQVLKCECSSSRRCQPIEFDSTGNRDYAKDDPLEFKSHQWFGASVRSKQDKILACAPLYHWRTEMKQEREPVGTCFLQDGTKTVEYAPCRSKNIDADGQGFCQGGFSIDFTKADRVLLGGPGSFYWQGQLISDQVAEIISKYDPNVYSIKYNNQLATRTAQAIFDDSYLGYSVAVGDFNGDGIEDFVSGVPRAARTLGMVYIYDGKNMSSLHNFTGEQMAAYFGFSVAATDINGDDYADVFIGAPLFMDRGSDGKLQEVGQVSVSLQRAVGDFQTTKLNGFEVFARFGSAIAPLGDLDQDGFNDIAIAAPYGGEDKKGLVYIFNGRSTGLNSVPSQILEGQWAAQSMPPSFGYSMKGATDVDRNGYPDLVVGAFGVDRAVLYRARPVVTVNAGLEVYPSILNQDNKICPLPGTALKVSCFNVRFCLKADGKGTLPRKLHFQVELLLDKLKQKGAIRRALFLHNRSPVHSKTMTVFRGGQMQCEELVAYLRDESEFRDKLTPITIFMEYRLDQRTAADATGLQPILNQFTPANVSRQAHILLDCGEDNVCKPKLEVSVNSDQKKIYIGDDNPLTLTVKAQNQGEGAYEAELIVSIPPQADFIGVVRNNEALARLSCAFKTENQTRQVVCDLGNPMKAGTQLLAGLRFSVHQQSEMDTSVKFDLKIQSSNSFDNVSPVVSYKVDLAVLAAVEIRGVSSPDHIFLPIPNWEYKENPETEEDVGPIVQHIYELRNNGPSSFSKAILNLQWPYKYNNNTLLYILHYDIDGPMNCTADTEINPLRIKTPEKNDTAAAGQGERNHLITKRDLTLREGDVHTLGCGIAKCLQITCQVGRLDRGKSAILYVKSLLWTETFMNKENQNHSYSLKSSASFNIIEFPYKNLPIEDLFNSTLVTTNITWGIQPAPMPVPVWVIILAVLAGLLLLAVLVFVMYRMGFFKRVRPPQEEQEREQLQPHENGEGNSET
T2 sequence (O54890 26-787, chain 2 of 2): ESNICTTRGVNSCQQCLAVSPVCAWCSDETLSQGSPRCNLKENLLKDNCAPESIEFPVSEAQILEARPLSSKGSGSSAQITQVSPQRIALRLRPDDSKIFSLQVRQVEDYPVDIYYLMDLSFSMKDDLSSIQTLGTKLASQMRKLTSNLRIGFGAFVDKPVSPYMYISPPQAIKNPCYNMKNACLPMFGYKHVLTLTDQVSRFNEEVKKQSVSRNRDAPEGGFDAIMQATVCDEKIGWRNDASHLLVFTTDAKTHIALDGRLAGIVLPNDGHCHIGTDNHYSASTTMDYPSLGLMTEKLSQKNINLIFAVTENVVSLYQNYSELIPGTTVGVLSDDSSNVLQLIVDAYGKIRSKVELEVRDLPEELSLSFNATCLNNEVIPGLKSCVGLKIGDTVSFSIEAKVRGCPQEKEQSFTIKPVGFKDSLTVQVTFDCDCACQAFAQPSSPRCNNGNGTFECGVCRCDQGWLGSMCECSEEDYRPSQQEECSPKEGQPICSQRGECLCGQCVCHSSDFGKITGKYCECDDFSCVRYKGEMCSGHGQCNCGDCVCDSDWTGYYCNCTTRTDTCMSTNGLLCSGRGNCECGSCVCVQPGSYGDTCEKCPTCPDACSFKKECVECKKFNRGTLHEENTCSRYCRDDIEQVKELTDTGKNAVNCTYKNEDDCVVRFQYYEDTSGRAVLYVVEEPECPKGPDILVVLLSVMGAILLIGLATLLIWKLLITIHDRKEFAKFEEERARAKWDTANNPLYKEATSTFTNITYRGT
Briefly: inferred from MEL cell complement lysis assay with GRGDS peptide, αVβ3 antibody and RGD->KAE mutant. Here is the method:
MEL cells prepared as in FIG. 8 were treated with normal rBSP (10 μg/mL), rBSP whose RGD sequence had been mutated to KAE ([…]), and either GRGDS (SEQ ID NO: 10) peptide (400 μM) followed by rBSP or an αVβ3 antibody (1:4000) followed by rBSP for 10 minutes prior to the addition of normal human serum. The cells were then incubated for 10 minutes after which cell viability determined using the MTT assay (A). A cohort of MEL cells were pretreated with rOPN (10 μg/mL) alone, GRGDS (SEQ ID NO: 10) peptide followed by rOPN, the αVβ3 antibody followed by rOPN, or an anti-CD44 antibody (Chemicon, Co.) followed by rOPN, or hyaluronan (HA) followed by rOPN (B). Cells were then treated with normal human serum and viability assayed as in FIG. 8. […] Statistical significance was determined by analysis of variance. Percent cell viability was determined using A560 absorbance values of various conditions and a control where no serum had been added (100% viable). […]
Murine erytliroleukemia (MEL) cells (a gift of Dr. Marilyn Farquhar, Univ. CA San Diego.) grown in DMEM containing 10% fetal bovine serum and 4 mM glutamine were rinsed three times with gelatin veronal buffer with Mg_2^+ and EGTA (GVB-MgEGTA, Sigma, St. Louis, Mo.). […] Cell viability was determined spectrophotometrically by absorbance at 560 nm.

T1 sequence (P08603 19-1231 limits assumed): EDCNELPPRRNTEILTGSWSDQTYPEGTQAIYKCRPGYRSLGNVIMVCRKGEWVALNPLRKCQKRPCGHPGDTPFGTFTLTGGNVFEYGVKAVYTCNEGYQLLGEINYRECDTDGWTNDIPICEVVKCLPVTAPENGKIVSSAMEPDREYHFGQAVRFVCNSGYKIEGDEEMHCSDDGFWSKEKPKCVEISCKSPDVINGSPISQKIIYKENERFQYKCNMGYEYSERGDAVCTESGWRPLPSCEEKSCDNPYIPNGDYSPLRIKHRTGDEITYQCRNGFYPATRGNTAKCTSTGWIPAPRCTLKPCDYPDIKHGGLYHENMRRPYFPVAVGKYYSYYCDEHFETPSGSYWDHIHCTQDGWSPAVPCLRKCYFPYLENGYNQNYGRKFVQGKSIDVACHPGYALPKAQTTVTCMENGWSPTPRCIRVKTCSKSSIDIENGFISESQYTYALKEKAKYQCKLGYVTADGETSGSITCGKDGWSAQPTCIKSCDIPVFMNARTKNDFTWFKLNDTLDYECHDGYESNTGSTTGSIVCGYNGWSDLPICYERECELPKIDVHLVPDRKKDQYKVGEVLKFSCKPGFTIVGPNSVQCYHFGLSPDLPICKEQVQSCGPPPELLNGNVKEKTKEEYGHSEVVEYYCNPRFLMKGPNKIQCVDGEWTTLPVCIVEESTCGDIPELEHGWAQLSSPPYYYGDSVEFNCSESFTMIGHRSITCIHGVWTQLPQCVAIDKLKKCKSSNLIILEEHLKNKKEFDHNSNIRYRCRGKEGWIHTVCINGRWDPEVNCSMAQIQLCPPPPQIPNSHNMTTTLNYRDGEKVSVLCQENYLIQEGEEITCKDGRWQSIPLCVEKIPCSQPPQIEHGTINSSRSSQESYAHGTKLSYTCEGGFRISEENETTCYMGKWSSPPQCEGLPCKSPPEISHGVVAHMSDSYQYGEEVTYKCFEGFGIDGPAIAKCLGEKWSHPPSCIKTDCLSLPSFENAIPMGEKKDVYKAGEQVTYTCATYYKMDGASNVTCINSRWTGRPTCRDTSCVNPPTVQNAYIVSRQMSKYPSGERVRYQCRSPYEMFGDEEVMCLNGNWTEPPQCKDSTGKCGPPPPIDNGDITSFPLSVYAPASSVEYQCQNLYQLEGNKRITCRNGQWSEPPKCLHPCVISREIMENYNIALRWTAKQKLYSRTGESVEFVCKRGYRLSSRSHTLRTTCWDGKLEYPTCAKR

B1: recombinant dentin matrix protein 1 (rDMP1) (ligand)
chain: LPVTRYQNNESEDSEEWKGHLAQAPTPPLESSESSEGSKVSSEEQANEDPSDSTQSEEGLGSDDHQYIYRLAGGFSRSTGKGGDDKDDDEDDSGDDTFGDDDSGPGPKDRQEGGNSRLGSDEDSDDTIQASEESAPQGQDSAQDTTSESRELDNEDRVDSKPEGGDSTQESESEEHWVGGGSDGESSHGDGSELDDEGMQSDDPESIRSERGNSRMNSAGMKSKESGENSEQANTQDSGGSQLLEHPSRKIFRKSRISEEDDRSELDDNNTMEEVKSDSTENSNSRDTGLSQPRRDSKGDSQEDSKENLSQEESQNVDGPSSESSQEANLSSQENSSESQEEVVSESRGDNPDPTTSYVEDQEDSDSSEEDSSHTLSHSKSESREEQADSESSESLNFSEESPESPEDENSSSQEGLQSHSSSAESQSEESHSEEDDSDSQDSSRSKEDSNSTESKSSSEEDGQLKNIEIESRKLTVDAYHNKPIGDQDDNDCQDGY
For the molecule B1, the “stoichiometry (DMP1:Factor H)” value in test [1] turned out to be 1 mol/mol.

B2: recombinant human bone sialoprotein (rBSP) (ligand)
chain: FSMKNLHRRVKIEDSEENGVFKYRPRYYLYKHAYFYPHLKRFPVQGSSDSSEENGDDSSEEEEEEEETSNEGENNEESNEDEDSEAENTTLSATTLGYGEDATPGTGYTGLAAIQLPKKAGDITNKATKEKESDEEEEEEEEGNENEESEAEVDENEQGINGTSTNSTEAENGNGSSGGDNGEEGEEESVTGANAEGTTETGGQGKGTSKTTTSPNGGFEPTTPPQVYRTTSPPFGKTTTVEYEGEYEYTGVNEYDNGYEIYESENGEPRGDNYRAYEDEYSYFKGQGYDGYDGQNYYHHQ
modifications: post-translationally modified by the producing human marrow stromal fibroblasts (glycosylation, sulfation, phosphorylation; sites not stated)
notes: Range 17-317 follows the stated 16-residue leader; not checked against the listing; also called recombinant BSP; purified human BSP
Take B2: in test [2], the Kd – broadly, the concentration at which binding is half-saturated – is not above 1 nM and the “stoichiometry (BSP:Factor H)” value came to 1 mol/mol. In addition, the binding result in test [3] is listed as “binds”.
